According to paper PMC2965767, “Identification and Genome-Wide Prediction of DNA Binding Specificities for the ApiAP2 Family of Regulators from the Malaria Parasite”:
Positions count from the first letter of the chain named.

Key:
[1] = biological target: T1, PF07_0126 DLDext (PF3D7_0730300, AP2 domain transcription factor AP2-L, putative) (Plasmodium falciparum) (UniProt Q8IBF6); conditions: PBM; highest protein concentration obtained; buffer not given; scale: PBM E-score of the seed 8-mer
T1 sequence: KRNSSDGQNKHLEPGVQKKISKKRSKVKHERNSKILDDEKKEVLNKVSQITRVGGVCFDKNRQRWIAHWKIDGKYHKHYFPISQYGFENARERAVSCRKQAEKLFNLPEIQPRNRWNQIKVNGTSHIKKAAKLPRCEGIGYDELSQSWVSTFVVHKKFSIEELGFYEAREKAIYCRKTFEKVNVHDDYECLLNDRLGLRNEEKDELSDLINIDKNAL

[2] = biological target: T2, PF11_0091 D1 (PF3D7_1107800, AP2 domain transcription factor, putative) (Plasmodium falciparum) (UniProt Q8IIS4); conditions: PBM; highest protein concentration obtained; buffer not given; scale: PBM E-score of the seed 8-mer
T2 sequence: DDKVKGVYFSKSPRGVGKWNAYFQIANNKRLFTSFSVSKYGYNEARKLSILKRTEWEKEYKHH

[3] = biological target: T3, PF11_0442 D1ext (PF3D7_1143100, AP2 domain transcription factor AP2-O, putative) (Plasmodium falciparum) (UniProt Q8IHT5); conditions: PBM; highest protein concentration obtained; buffer not given; scale: PBM E-score of the seed 8-mer
T3 sequence: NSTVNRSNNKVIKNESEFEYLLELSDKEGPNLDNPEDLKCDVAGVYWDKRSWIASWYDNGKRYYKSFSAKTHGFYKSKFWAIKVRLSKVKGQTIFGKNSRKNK

[4] = biological target: T4, PF13_0235 D1ext (PF3D7_1342900, AP2 domain transcription factor, putative) (Plasmodium falciparum) (UniProt C0H5G5); conditions: PBM; highest protein concentration obtained; buffer not given; scale: PBM E-score of the seed 8-mer
T4 sequence: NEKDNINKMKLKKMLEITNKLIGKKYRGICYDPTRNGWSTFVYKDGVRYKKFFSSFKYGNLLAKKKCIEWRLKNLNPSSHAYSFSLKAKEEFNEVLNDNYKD

[5] = biological target: T5, MAL8P1.153 D1 (PF3D7_0802100, AP2 domain transcription factor, putative) (Plasmodium falciparum) (UniProt Q8IAM1); conditions: PBM; highest protein concentration obtained; buffer not given; scale: PBM E-score of the seed 8-mer
T5 sequence: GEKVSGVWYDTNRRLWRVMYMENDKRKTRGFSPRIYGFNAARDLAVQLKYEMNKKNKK

[6] = biological target: T6, PFF0200c DLD (PF3D7_0604100, AP2 domain transcription factor) (Plasmodium falciparum) (UniProt C6KSN9); conditions: PBM; highest protein concentration obtained; buffer not given; scale: PBM E-score of the seed 8-mer
T6 sequence: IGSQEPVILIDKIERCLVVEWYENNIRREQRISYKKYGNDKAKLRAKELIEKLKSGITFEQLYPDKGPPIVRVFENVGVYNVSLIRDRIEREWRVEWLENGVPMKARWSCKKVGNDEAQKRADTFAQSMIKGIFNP

[7] = biological target: T7, PFD0985w D1 (ApiAP2) (Plasmodium falciparum) (UniProt Q8I1N6); conditions: PBM; highest protein concentration obtained; buffer not given; scale: PBM E-score of the seed 8-mer
T7 sequence: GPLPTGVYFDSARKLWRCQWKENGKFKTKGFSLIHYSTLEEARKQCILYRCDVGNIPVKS

[8] = biological target: T8, PF10_0075 D2ext (PF3D7_1007700, AP2 domain transcription factor AP2-I) (Plasmodium falciparum) (UniProt Q8IJW6); conditions: PBM; highest protein concentration obtained; buffer not given; scale: PBM E-score of the seed 8-mer
T8 sequence: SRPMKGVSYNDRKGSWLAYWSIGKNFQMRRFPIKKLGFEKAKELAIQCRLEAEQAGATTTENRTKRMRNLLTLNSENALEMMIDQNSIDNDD

[9] = biological target: T9, PFE0840c D2 (PF3D7_0516800, AP2 domain transcription factor AP2-O2, putative) (Plasmodium falciparum) (UniProt Q8I3U0); conditions: PBM; highest protein concentration obtained; buffer not given; scale: PBM E-score of the seed 8-mer
T9 sequence: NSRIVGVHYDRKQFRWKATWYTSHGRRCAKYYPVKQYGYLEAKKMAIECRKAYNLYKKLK

[10] = biological target: T10, PF13_0026 D1 (PF3D7_1305200, AP2 domain transcription factor, putative) (Plasmodium falciparum) (UniProt Q8IER4); conditions: PBM; highest protein concentration obtained; buffer not given; scale: PBM E-score of the seed 8-mer
T10 sequence: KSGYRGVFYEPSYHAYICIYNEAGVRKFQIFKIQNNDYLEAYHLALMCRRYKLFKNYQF

[11] = biological target: T11, PF14_0079 D1 (PF3D7_1408200, AP2 domain transcription factor AP2-G2, putative) (Plasmodium falciparum) (UniProt Q8IM14); conditions: PBM; highest protein concentration obtained; buffer not given; scale: PBM E-score of the seed 8-mer
T11 sequence: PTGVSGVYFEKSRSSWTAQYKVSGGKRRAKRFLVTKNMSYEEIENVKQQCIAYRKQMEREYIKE

[12] = biological target: T12, PFL1900w D1ext (PF3D7_1239200, AP2 domain transcription factor, putative) (Plasmodium falciparum) (UniProt Q8I531); conditions: PBM; highest protein concentration obtained; buffer not given; scale: PBM E-score of the seed 8-mer
T12 sequence: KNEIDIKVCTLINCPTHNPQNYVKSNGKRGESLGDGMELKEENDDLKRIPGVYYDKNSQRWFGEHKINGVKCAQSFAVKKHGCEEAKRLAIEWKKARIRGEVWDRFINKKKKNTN

[13] = biological target: T13, PFF0670w D1 (PF3D7_0613800, AP2 domain transcription factor, putative) (Plasmodium falciparum) (UniProt C6KSY0); conditions: PBM; highest protein concentration obtained; buffer not given; scale: PBM E-score of the seed 8-mer
T13 sequence: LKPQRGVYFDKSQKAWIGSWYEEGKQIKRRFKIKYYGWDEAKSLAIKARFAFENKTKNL

[14] = biological target: T14, PF13_0267 D1 (PF3D7_1350900, AP2 domain transcription factor AP2-O4, putative) (Plasmodium falciparum, UniProt A0A5K1K8Z4 400-521); test: EMSA; 5 mM MgCl2 with 10 mM EDTA; LightShift buffer, 2.5% glycerol, 50 mM KCl, 0.05% NP-40, 50 ng/uL poly(dI-dC); room temperature, 20 min; conditions: tags: N-terminal GST (pGEX-4T1), kept; label: 5' biotin
T14 sequence: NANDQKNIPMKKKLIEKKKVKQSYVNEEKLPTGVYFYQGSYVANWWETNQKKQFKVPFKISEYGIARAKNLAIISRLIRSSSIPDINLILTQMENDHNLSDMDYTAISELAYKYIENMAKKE

[15] = biological target: T15, PFL1900w DLD (PF3D7_1239200, AP2 domain transcription factor, putative) (Plasmodium falciparum, UniProt Q8I531 2149-2347); test: as above; conditions: tags: N-terminal GST (pGEX-4T1), kept; label: 5' biotin
T15 sequence: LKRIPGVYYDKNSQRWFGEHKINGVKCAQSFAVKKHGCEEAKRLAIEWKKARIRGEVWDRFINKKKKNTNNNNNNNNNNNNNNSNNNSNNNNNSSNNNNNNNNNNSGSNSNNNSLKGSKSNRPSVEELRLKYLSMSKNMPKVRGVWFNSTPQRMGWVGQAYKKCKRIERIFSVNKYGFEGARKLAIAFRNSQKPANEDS

[16] = biological target: T16, PFD0985w_D2 (AP2 domain 2) (Plasmodium falciparum, UniProt Q8I1N6 3268-3321); test: EMSA; poly(dI-dC); LightShift EMSA buffer, 2.5% glycerol, 5 mM MgCl2, 10 mM EDTA, 50 mM KCl, 0.05% NP-40, 50 ng/uL poly(dI-dC), 10 fmol biotin probe, 50 or 250x competitor, room temperature 20 min; conditions: protein: recombinant; tags: N-terminal GST (pGEX-4T1); label: 5' biotin (probe); blunt
T16 sequence: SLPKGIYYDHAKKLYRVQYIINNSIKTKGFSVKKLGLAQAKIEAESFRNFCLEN

[17] = biological target: T16, PFD0985w_D2 (AP2 domain 2); test: EMSA; poly(dI-dC); bound equally well as primary motif; LightShift EMSA buffer, 2.5% glycerol, 5 mM MgCl2, 10 mM EDTA, 50 mM KCl, 0.05% NP-40, 50 ng/uL poly(dI-dC), 10 fmol biotin probe, 50 or 250x competitor, room temperature 20 min; conditions: protein: recombinant; tags: N-terminal GST (pGEX-4T1); label: 5' biotin (probe); blunt
[18] = biological target: PF11_0091 D1 (PF3D7_1107800, AP2 domain transcription factor, putative) (Plasmodium falciparum, UniProt Q8IIS4 1486-1548); test: EMSA; 5 mM MgCl2 with 10 mM EDTA; LightShift buffer, 2.5% glycerol, 50 mM KCl, 0.05% NP-40, 50 ng/uL poly(dI-dC); room temperature, 20 min; conditions: tags: N-terminal GST (pGEX-4T1), kept; label: 5' biotin
[19] = biological target: T17, PF13_0235 D1ext (PF3D7_1342900, AP2 domain transcription factor, putative) (Plasmodium falciparum, UniProt C0H5G5 2339-2440); test: as above; conditions: tags: N-terminal GST (pGEX-4T1), kept; label: 5' biotin
T17 sequence: T4 sequence

In the case of “AATTTCC (double strand) [PF07_0126_DLD primary motif]”, the binding signal [1] is reported as 0.467.

With “AGCATAC (double strand) [PF11_0091 primary motif]” the binding signal [2] was 0.472.

In the case of “AGCTAGCT (double strand) [PF11_0442 primary motif]”, the binding signal [3] is reported as 0.478.

With “AWGGKMCC / GGKMCCWT [PF13_0235_D1 Secondary motif 1]” the binding signal [4] was > 0.45.

In the case of “CACACACA (double strand) [MAL8P1.153 primary motif]”, the binding signal [5] is reported as 0.477.

“GCCCCGC (double strand) [PF13_0235_D1 primary motif]” showed a binding signal [4] of 0.494.

Molecule “GTGCAC (double strand) [PFF0200c_DLD primary motif]” has a binding signal [6] of 0.481.

“GTGTGTG (double strand) [PFD0985w_D1 primary motif]” gave a binding signal [7] of 0.497.

“TCTTGCC (double strand) [PF10_0075_D2 primary motif]” showed a binding signal [8] of 0.468.

With “TGACATCA (double strand) [PFE0840c_D2 primary motif]” the binding signal [9] was 0.472.

With “TGCACACAC (double strand) [PF13_0026 primary motif]” the binding signal [10] was 0.495.

In the case of “TGCNACCA (double strand) [PF14_0079 primary motif]”, the binding signal [11] is reported as 0.487.

“TTCTACA (double strand) [PFL1900w_D1 primary motif]” showed a binding signal [12] of 0.46.

Work on “WTAAGCC (double strand) [PFF0670w_D1 primary motif]” yielded a binding signal [13] of 0.465.

B1: pfc0975c (dsDNA)
DNA 1: TTATGATGATACATAAATTACTGATCTTTCTAGGTGCGCTGCTACCATTATCGTGAATAA
DNA 2: TTATTCACGATAATGGTAGCAGCGCACCTAGAAAGATCAGTAATTTATGTATCATCATAA
B1: binds [14].

B2: pfc0975c-MUT (dsDNA)
DNA 1: B1 DNA 1 with T31A, G33A
DNA 2: B1 DNA 2 with C28T, A30T
B2: no binding [14].

B3: PFL1900w_DLD-1 (motif rank) (dsDNA)
DNA 1: AATATTATAATAGTCGTAGCCATCAATTCTACAAAATGGTAATATAGATTTTCGTTTATATT
DNA 2: AATATAAACGAAAATCTATATTACCATTTTGTAGAATTGATGGCTACGACTATTATAATATT
B3: binds [15].

B4: PFL1900w_DLD-2 (motif rank) (dsDNA)
DNA 1: B3 DNA 1 with T28A, T30G, A34T, A35C
DNA 2: B3 DNA 2 with T28G, T29A, A33C, A35T
B4: binds [15].

B5: PFD0985w_D2-1° (dsDNA)
DNA 1: AATATTATAATAGTCGTAGCCATCAATGTGTAACACATGGTAATATAGATTTTCGTTTATATT
DNA 2: AATATAAACGAAAATCTATATTACCATGTGTTACACATTGATGGCTACGACTATTATAATATT
B5: binds [16].

B6: PFD0985w_D2-2° (dsDNA)
DNA 1: B5 DNA 1 with G28C, T29C, G30A, T31C, A33C, C34A, A35C
DNA 2: B5 DNA 2 with T29G, G30T, T31G, A33G, C34T, A35G, C36G
B6: binds [17].

B7: gbp130 (dsDNA)
DNA 1: AAGCAAATAAGATATTCCAAAAAAAAGTATTCTAATGTGTACTAATAAACCTTTATATAA
DNA 2: TTATATAAAGGTTTATTAGTACACATTAGAATACTTTTTTTTGGAATATCTTATTTGCTT
B7: binds [18].

B8: hsp86 (dsDNA)
DNA 1: TTTTAAAAAAAAAAAAAAAGCCCCGCGGAAAGGGGCCATTGGATATATATTTAGTATTCC
DNA 2: GGAATACTAAATATATATCCAATGGCCCCTTTCCGCGGGGCTTTTTTTTTTTTTTTAAAA
B8: binds [19].

B9: hsp86-MUT3 (dsDNA)
DNA 1: TTTTAAAAAAAAAAAAAAAGTATAGCGGAAATATACCATTGGATATATATTTAGTATTCC
DNA 2: GGAATACTAAATATATATCCAATGGTATATTTCCGCTATACTTTTTTTTTTTTTTTAAAA
B9: no binding [19].
